Patent US20170037151A1
Values belong to the substance of their own block, whether it stands above or below them.

What was measured:
Total SYK (human) = Total SYK (human) (UniProt P43405); assay: IHC pathology score, share of the 15 human DLBCL biopsies scored positive
SYK pY323 (human) = SYK pY323 (human) (UniProt P43405); assay: as above
[1] = biological target: endogenous pSYK (activated SYK, pSYK Y525/526) in stimulated human lymphoma/leukemia cells, xenografts and biopsies (human) (UniProt P43405); assay: IHC, PHTX 95L xenograft untreated, Aperio positive pixel count
[2] = biological target: endogenous pSYK (activated SYK, pSYK Y525/526) in stimulated human lymphoma/leukemia cells, xenografts and biopsies (human) (UniProt P43405); assay: IHC, PHTX95L xenograft, SYK inhibitor-treated mice, Aperio positive pixel count
[3] = biological target: endogenous pSYK (activated SYK, pSYK Y525/526) in stimulated human lymphoma/leukemia cells, xenografts and biopsies (human) (UniProt P43405); assay: IHC pathology score, share of the 15 human DLBCL biopsies scored positive

- % Positive (Total SYK (human)): 100%
Substance: Epitomics 1688-1 anti-hSYK (total SYK) antibody

- % Positive (SYK pY323 (human)): 40%
Substance: Epitomics 2173 anti-SYK pY323 antibody

- Percent Positive Pixel per total Pixel [1]: 8.21%
- Percent Positive Pixel per total Pixel [2]: 0.56%
- % Positive [3]: 40%
Substance: Epitomics 2175-1 anti-pSYK Y525/526 antibody
